These are literature values, as cited in paper PMC7103376.

Usually pKd stands for −log10 of the Kd, conventionally taken in molar units.

This series concerns the target 3CLpro (SARS coronavirus) (UniProt P0C6X7).

pKd: −log10 of the molar value. Bounds are passed on as bounds.

Consider 3CLpro (from UniProt P0C6X7), for which the pKd is more than 7.00.
